To fix the notation:
B1: Kinesin-like protein KIF16B (Homo sapiens), Q96L93 (parent)
chain: MASVKVAVRVRPMNRREKDLEAKFIIQMEKSKTTITNLKIPEGGTGDSGRERTKTFTYDFSFYSADTKSPDYVSQEMVFKTLGTDVVKSAFEGYNACVFAYGQTGSGKSYTMMGNSGDSGLIPRICEGLFSRINETTRWDEASFRTEVSYLEIYNERVRDLLRRKSSKTFNLRVREHPKEGPYVEDLSKHLVQNYGDVEELMDAGNINRTTAATGMNDVSSRSHAIFTIKFTQAKFDSEMPCETVSKIHLVDLAGSERADATGATGVRLKEGGNINKSLVTLGNVISALADLSQDAANTLAKKKQVFVPYRDSVLTWLLKDSLGGNSKTIMIATISPADVNYGETLSTLRYANRAKNIINKPTINEDANVKLIRELRAEIARLKTLLAQGNQIALLDSPTALSMEEKLQQNEARVQELTKEWTNKWNETQNILKEQTLALRKEGIGVVLDSELPHLIGIDDDLLSTGIILYHLKEGQTYVGRDDASTEQDIVLHGLDLESEHCIFENIGGTVTLIPLSGSQCSVNGVQIVEATHLNQGAVILLGRTNMFRFNHPKEAAKLREKRKSGLLSSFSLSMTDLSKSRENLSAVMLYNPGLEFERQQREELEKLESKRKLIEEMEEKQKSDKAELERMQQEVETQRKETEIVQLQIRKQEESLKRRSFHIENKLKDLLAEKEKFEEERLREQQEIELQKKRQEEETFLRVQEELQRLKELNNNEKAEKFQIFQELDQLQKEKDEQYAKLELEKKRLEEQEKEQVMLVAHLEEQLREKQEMIQLLRRGEVQWVEEEKRDLEGIRESLLRVKEARAGGDEDGEELEKAQLRFFEFKRRQLVKLVNLEKDLVQQKDILKKEVQEEQEILECLKCEHDKESRLLEKHDESVTDVTEVPQDFEKIKPVEYRLQYKERQLQYLLQNHLPTLLEEKQRAFEILDRGPLSLDNTLYQVEKEMEEKEEQLAQYQANANQLQKLQATFEFTANIARQEEKVRKKEKEILESREKQQREALERALARLERRHSALQRHSTLGMEIEEQRQKLASLNSGSREQSGLQASLEAEQEALEKDQERLEYEIQQLKQKIYEVDGVQKDHHGTLEGKVASSSLPVSAEKSHLVPLMDARINAYIEEEVQRRLQDLHRVISEGCSTSADTMKDNEKLHNGTIQRKLKYERMVSRSLGANPDDLKDPIKISIPRYVLCGQGKDAHFEFEVKITVLDETWTVFRRYSRFREMHKTLKLKYAELAALEFPPKKLFGNKDERVIAERRSHLEKYLRDFFSVMLQSATSPLHINKVGLTLSKHTICEFSPFFKKGVFDYSSHGTG

Variants of B1 are the subject of this assay. The conditions noted are these: with eea1_human EEA1, Q15075.
Chain of eea1_human EEA1, Q15075 (Q15075 whole entry): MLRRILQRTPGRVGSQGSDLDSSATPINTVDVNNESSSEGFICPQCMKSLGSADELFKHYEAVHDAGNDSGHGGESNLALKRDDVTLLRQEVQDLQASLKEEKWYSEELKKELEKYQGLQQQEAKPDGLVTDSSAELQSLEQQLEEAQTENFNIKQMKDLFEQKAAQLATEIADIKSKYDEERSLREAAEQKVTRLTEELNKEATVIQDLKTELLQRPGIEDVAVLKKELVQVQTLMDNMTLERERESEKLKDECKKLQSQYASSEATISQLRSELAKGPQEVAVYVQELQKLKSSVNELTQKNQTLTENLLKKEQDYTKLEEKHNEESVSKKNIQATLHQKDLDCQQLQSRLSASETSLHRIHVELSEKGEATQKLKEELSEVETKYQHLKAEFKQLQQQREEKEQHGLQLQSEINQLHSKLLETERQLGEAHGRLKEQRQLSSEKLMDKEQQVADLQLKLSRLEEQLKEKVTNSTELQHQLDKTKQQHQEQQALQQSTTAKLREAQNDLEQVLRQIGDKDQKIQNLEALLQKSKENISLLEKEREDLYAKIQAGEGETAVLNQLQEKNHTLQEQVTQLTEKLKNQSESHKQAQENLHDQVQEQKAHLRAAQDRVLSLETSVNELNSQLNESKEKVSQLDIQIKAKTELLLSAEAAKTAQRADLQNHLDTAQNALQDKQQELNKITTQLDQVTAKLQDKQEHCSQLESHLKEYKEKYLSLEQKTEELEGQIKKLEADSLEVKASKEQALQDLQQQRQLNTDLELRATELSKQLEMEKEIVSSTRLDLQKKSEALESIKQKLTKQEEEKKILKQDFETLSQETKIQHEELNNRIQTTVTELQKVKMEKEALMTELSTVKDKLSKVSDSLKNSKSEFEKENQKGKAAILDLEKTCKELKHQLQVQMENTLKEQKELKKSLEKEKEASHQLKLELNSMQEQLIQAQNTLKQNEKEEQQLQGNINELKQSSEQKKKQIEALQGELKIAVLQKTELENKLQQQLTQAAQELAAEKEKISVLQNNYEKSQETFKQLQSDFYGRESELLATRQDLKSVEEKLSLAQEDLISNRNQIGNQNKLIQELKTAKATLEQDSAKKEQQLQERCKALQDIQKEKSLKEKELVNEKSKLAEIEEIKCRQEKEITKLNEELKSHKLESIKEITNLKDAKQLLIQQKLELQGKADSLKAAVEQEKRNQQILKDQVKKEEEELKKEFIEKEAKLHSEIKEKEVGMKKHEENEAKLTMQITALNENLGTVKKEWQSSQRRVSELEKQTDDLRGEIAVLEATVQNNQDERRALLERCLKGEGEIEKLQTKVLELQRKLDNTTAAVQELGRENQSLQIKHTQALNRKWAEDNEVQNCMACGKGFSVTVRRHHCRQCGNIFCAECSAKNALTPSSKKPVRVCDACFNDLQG
F1249A: the “effect of a mutation on the interaction” value is reported as “disrupting interaction”. Turning to L1248A, the “effect of a mutation on the interaction” value is given as “disrupting interaction”.
